Laboratory results reported in US20200048332A1 (BIOVERATIV USA, published 2020).
Residue numbers refer to the chain shown, from its start.

T1: activated C1s (human, UniProt P09871 16-688)
T1 sequence: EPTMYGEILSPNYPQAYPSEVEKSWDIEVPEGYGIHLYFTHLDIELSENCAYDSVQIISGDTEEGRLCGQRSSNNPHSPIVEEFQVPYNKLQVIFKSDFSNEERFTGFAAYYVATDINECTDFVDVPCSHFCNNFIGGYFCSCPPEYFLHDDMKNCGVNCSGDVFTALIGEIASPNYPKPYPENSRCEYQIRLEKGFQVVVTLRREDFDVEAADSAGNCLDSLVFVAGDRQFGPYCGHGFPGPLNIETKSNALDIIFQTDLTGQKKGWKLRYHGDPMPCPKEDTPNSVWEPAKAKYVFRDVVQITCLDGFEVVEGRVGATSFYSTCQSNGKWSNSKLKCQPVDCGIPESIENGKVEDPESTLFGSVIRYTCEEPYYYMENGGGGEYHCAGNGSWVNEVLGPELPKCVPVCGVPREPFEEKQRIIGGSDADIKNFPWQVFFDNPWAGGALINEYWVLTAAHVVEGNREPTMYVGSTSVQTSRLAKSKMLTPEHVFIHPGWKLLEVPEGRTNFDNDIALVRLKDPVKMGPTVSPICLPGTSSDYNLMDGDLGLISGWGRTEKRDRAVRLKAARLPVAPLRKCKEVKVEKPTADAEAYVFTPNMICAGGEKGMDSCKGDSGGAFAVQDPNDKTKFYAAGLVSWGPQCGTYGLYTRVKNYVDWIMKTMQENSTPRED

B1: murine anti-activated C1s antibody (antibody, V domains shown)
VH: EVQLQQSGAELVRPGASVKLSCTASGFNIKDDYIHWVKQRPEQGLEWIGRIDPADGHTKYAPKFQVKATITADTSSNTAYLQLSSLTSEDTAVYYCARYGYGREVFDYWGQGTTLTVSS
VL: DIVLTQSPASLAVSLGQRATISCKASQSVDYDGDSYMNWYQQKTGQPPKILIYDASNLESGIPARFSGSGSGTDFTLNIHPVEEEDAAIYYCQQSNEDPWTFGGGTKLEIK
B2: humanized VH3/Vk2 (antibody, V domains shown)
VH: QVQLVQSGAEVKKPGASVKLSCTASGFNIKDDYIHWVKQAPGQGLEWIGRIDPADGHTKYAPKFQVKVTITADTSTSTAYLELSSLRSEDTAVYYCARYGYGREVFDYWGQGTTVTVSS
VL: B1 VL with A9D, Q17E, T44P, N78T, H80S, P81S, V82L, E84P, A87F, L108V
B3: humanized VH4/Vk1 (antibody, V domains shown)
VH: B2 VH with L20V, K38R, L81M
VL: B1 VL with A9D, Q17E, N78T, H80S, P81S, V82L, A87F, L108V
B4: humanized VH3/Vk5 (antibody, V domains shown)
VH: B2 VH
VL: DIVLTQSPDSLAVSLGERATISCKASQSVDYDGDSYMNWYQQKPGQPPKLLIYDASNLESGIPARFSGSGSGTDFTLTISSLEPEDFAVYYCQQSNEDPWTFGGGTKVEIK
B5: humanized VH4/Vk5 (antibody, V domains shown)
VH: B2 VH with L20V, K38R, L81M
VL: B4 VL
B6: humanized VH2/Vk5 (antibody, V domains shown)
VH: B2 VH with Q1E, V68A, S77N
VL: B4 VL
B7: humanized VH1/Vk5 (antibody, V domains shown)
VH: B2 VH with Q1E, V11L, V68A, S77N, E82Q, R87T
VL: B4 VL
B8: humanized VH5/Vk2 (antibody, V domains shown)
VH: B2 VH with L20V, T23A, K38R, L81M
VL: B4 VL with L50I, V89I
B9: humanized VH1/Vk1 (antibody, V domains shown)
VH: B2 VH with Q1E, V11L, V68A, S77N, E82Q, R87T
VL: B4 VL with P44T, L50I, P84E, V89I
B10: humanized VH5/Vk1 (antibody, V domains shown)
VH: B2 VH with L20V, T23A, K38R, L81M
VL: B4 VL with P44T, L50I, P84E, V89I
B11: humanized VH3/Vk1 (antibody, V domains shown)
VH: B2 VH
VL: B4 VL with P44T, L50I, P84E, V89I
B12: humanized VH4/Vk2 (antibody, V domains shown)
VH: B2 VH with L20V, K38R, L81M
VL: B4 VL with L50I, V89I
B13: humanized VH5/Vk5 (antibody, V domains shown)
VH: B2 VH with L20V, T23A, K38R, L81M
VL: B4 VL
B14: humanized VH2/Vk1 (antibody, V domains shown)
VH: B2 VH with Q1E, V68A, S77N
VL: B4 VL with P44T, L50I, P84E, V89I
B15: humanized VH1/Vk2 (antibody, V domains shown)
VH: B2 VH with Q1E, V11L, V68A, S77N, E82Q, R87T
VL: B4 VL with L50I, V89I
B16: VH3/VK2-Fc-sub4 (antibody, human IgG4 S228P, kappa, V domains shown)
VH: B2 VH
VL: DIVLTQSPDSLAVSLGERATISCKASQSVDYDGDSYMNWYQQKPGQPPKILIYDASNLESGIPARFSGSGSGTDFTLTISSLEPEDFAIYYCQQSNEDPWTFGGGTKVEIKR
notes: Humanized IgG4; also called TNT020; humanized anti-aC1s variant VH3/VK2-Fc-sub4

molecular target: T1, activated C1s; test: cell-based or functional assay

Row | IC50 of classical complement pathway inhibition ('Classical Pathway Inhibition', IC50 (M)) | Binder
1 | 1.06e-09 M | B1
2 | 1.26e-09 M | B2
3 | 1.35e-09 M | B3
4 | 1.38e-09 M | B4
5 | 1.54e-09 M | B5
6 | 1.27e-09 M | B6
7 | 1.26e-09 M | B7
8 | 1.33e-09 M | B8
9 | 1.2e-09 M | B9
10 | 1.08e-09 M | B10
11 | 1.27e-09 M | B11
12 | 1.31e-09 M | B12
13 | 1.33e-09 M | B13
14 | 1.23e-09 M | B14
15 | 1.14e-09 M | B15

molecular target: T1, activated C1s; test: method not stated; dissociation constant for active C1s

Row | Kd | Binder
16 | 1.53 nM | B16
